In article PMC8885691 (2022):

Biological target: p53pΔF19
Experiment: ITC

B1: p53-binding domain of human MdmX (N-MdmX, amino acids 22-110) (domain or fragment)
chain: GQINQVRPKLPLLKILHAAGAQGEMFTVKEVMHYLGQYIMVKQLYDQQEQHMVYCGGDLLGELLGRQSFSVKDPSPLYDMLRKNLVTLA
- Kd: 20.1 µM
